Source: publication PMC10713552 (Communications Biology, 2023)
Positions count from the first letter of the chain named. Where two headings read alike, the source gives them in different places.

How the values were obtained:
Assay in all cases: BLI
[1] = molecular target: T1, Omicron BA.1 spike protein ectodomain (BLI) (SARS-CoV-2 Omicron BA.1, strain); conditions: both partners purified
[2] = molecular target: T2, D614G-Hexapro (WT) spike ectodomain (SARS-CoV-2 Wuhan-Hu-1 D614G, D614G); conditions: both partners purified
[3] = molecular target: Omicron BA.5 spike protein ectodomain (BLI) (SARS-CoV-2 Omicron BA.5 (BA.4/5 spike), strain); conditions: both partners purified
[4] = molecular target: Omicron BA.2.12 spike protein ectodomain (BLI) (SARS-CoV-2 Omicron BA.2.12.1, strain); conditions: both partners purified
[5] = molecular target: Omicron BA.2 spike protein ectodomain (BLI) (SARS-CoV-2, Omicron BA.2, strain); conditions: both partners purified
[6] = molecular target: T1, Omicron BA.1 spike protein ectodomain …
[7] = molecular target: T2, D614G-Hexapro (WT) spike ectodomain
[8] = molecular target: SARS-CoV-2 Omicron BA.2.12.1 spike protein ectodomain (SARS-CoV-2 Omicron BA.2.12.1, S373P); conditions: both partners purified
[9] = molecular target: SARS-CoV-2 B.1.1.529.1/BA.1 S-HexaPro (SARS-CoV-2, Omicron BA.1, Ser371Leu | Ser373Pro | Ser375Phe | Q493R); conditions: both partners purified

B1: N3-1_M (antibody, V domains shown)
VH: QVQLQQWGPGLVNPSETLSLTCSVSGGSFATENYYWSWIRQHPGEGLEWIGNIYFSGNTYYNPSLNNRFTISFDTSKNHLSLKLPSVTAADTAVYYCARGTIYFDMSGYRRVDPFHIWGQGTMVIVSS
VL: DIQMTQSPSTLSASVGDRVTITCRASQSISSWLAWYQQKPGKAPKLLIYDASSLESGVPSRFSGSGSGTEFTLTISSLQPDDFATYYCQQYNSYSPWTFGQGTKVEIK
notes: IgG1
Binder B1 has a Kd [1] of 428 nM, a koff [1] of 0.00368 s⁻¹ and a kon [1] of 8590 M⁻¹ s⁻¹. The Kd [2] was 4.22 nM, the koff [2] was 0.000278 s⁻¹ and the kon [2] was 65900 M⁻¹ s⁻¹. The Kd [3] was 172 nM, the koff [3] was 0.00253 s⁻¹ and the kon [3] was 14700 M⁻¹ s⁻¹. It also gave a Kd [4] of 28 nM, a koff [4] of 0.000621 s⁻¹ and a kon [4] of 22200 M⁻¹ s⁻¹. The Kd [5] was 178 nM, the koff [5] was 0.00245 s⁻¹ and the kon [5] was 13800 M⁻¹ s⁻¹. For the same binder, the Kd [6] was 33.2 nM, the koff [6] was 0.00105 s⁻¹ and the kon [6] was 31700 M⁻¹ s⁻¹. It also gave a Kd [7] of 4420 nM, a koff [7] of 0.00151 s⁻¹ and a kon [7] of 342 M⁻¹ s⁻¹.

B2: 0367-N3_T65N (antibody, V domains shown)
VH: B1 VH with T59N, M106R
VL: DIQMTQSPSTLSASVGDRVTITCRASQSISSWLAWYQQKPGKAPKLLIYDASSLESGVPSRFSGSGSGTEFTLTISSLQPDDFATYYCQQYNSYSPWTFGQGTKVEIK
notes: source: Expi293F, transfected
Work on B2 yielded a Kd [6] of 642 nM, a koff [6] of 0.00176 s⁻¹ and a kon [6] of 2740 M⁻¹ s⁻¹. It also gave a Kd [7] of 1.09 nM, a koff [7] of 0.000175 s⁻¹ and a kon [7] of 160000 M⁻¹ s⁻¹.

B3: 0363-N3_T65I (antibody, V domains shown)
VH: B1 VH with T59I, M106R
VL: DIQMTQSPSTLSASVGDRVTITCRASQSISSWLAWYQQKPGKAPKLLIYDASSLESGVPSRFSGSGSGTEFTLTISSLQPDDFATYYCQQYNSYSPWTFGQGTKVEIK
notes: source: Expi293F, transfected
For B3, the Kd [6] was 1580 nM, the koff [6] was 0.00106 s⁻¹ and the kon [6] was 673 M⁻¹ s⁻¹. For the same binder, the Kd [7] was 71 nM, the koff [7] was 2.3e-05 s⁻¹ and the kon [7] was 324 M⁻¹ s⁻¹.

B4: N3-1_Q (antibody, V domains shown)
VH: B1 VH with M106Q
VL: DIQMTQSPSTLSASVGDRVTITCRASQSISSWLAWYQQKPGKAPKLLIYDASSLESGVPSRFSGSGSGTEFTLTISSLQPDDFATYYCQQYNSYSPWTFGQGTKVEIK
notes: IgG1
With B4 the Kd [1] was 4800 nM, the koff [1] was 0.015 s⁻¹ and the kon [1] was 3120 M⁻¹ s⁻¹. The kon [2] was 1000 M⁻¹ s⁻¹, the Kd [3] was 771 nM and the koff [3] was 0.00666 s⁻¹. It also gave a kon [3] of 8640 M⁻¹ s⁻¹, a Kd [4] of 291 nM and a koff [4] of 0.00336 s⁻¹. For the same binder, the kon [4] was 11500 M⁻¹ s⁻¹, the Kd [5] was 483 nM and the koff [5] was 0.00403 s⁻¹. The kon [5] was 8360 M⁻¹ s⁻¹.

B5: 0351-MN3_T65R (antibody, V domains shown)
VH: B1 VH with T59R
VL: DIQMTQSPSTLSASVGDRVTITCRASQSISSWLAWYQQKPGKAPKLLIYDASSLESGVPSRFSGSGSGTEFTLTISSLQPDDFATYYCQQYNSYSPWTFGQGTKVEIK
notes: source: Expi293F, transfected
For B5, the Kd [6] was 175 nM, the koff [6] was 0.00187 s⁻¹ and the kon [6] was 10700 M⁻¹ s⁻¹. For the same binder, the Kd [7] was 3.87 nM, the koff [7] was 0.000806 s⁻¹ and the kon [7] was 208000 M⁻¹ s⁻¹.

B6: 0381-YN3_T65H (antibody, V domains shown)
VH: B1 VH with T59H, M106Y
VL: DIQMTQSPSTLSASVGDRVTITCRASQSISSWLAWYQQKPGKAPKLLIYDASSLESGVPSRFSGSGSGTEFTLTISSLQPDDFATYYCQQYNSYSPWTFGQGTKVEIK
notes: source: Expi293F, transfected
With B6 the Kd [6] was 8040 nM, the koff [6] was 0.00217 s⁻¹ and the kon [6] was 269 M⁻¹ s⁻¹. It also gave a Kd [7] of 663 nM, a koff [7] of 0.00016 s⁻¹ and a kon [7] of 242 M⁻¹ s⁻¹.

B7: N3-1_I (antibody, V domains shown)
VH: B1 VH with M106I
VL: not shown
notes: IgG1; copies: 2 + 2
B7 was tested, and the “fold improvement in Kd against wild-type N3-1” value [8] was 20 fold and the “fold improvement in Kd against wild-type N3-1” value [9] was 4 fold.

B8: 0329-LN3_T65N (antibody, V domains shown)
VH: B1 VH with T59N, M106L
VL: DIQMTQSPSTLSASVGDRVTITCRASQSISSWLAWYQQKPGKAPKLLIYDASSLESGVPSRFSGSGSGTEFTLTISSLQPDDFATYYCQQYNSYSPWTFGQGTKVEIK
notes: source: Expi293F, transfected
For B8, the Kd [6] was 98.7 nM, the koff [6] was 0.000925 s⁻¹ and the kon [6] was 9380 M⁻¹ s⁻¹. It also gave a Kd [7] of 187 nM, a koff [7] of 0.000519 s⁻¹ and a kon [7] of 2780 M⁻¹ s⁻¹.

B9: 0349-MN3_T65P (antibody, V domains shown)
VH: B1 VH with T59P
VL: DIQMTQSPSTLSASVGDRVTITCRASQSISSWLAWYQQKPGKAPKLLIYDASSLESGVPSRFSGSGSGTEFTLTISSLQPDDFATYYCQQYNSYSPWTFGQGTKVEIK
notes: source: Expi293F, transfected
Binder B9 has a Kd [6] of 8260 nM, a koff [6] of 0.00219 s⁻¹ and a kon [6] of 265 M⁻¹ s⁻¹. For the same binder, the Kd [7] was 2.97 nM, the koff [7] was 0.00117 s⁻¹ and the kon [7] was 392000 M⁻¹ s⁻¹.

B10: N3-1_Y (antibody, V domains shown)
VH: B1 VH with M106Y
VL: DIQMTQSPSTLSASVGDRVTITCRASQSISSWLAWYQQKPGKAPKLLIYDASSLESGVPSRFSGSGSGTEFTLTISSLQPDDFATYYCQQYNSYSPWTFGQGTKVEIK
notes: IgG1
In the case of B10, the Kd [1] is reported as 709 nM, the koff [1] is reported as 0.00791 s⁻¹ and the kon [1] is reported as 11200 M⁻¹ s⁻¹. For the same binder, the Kd [2] was 5.45 nM, the koff [2] was 0.000748 s⁻¹ and the kon [2] was 137000 M⁻¹ s⁻¹. The Kd [3] was 337 nM, the koff [3] was 0.0072 s⁻¹ and the kon [3] was 21300 M⁻¹ s⁻¹. It also gave a Kd [4] of 142 nM, a koff [4] of 0.00385 s⁻¹ and a kon [4] of 27100 M⁻¹ s⁻¹. For the same binder, the Kd [5] was 225 nM, the koff [5] was 0.00447 s⁻¹ and the kon [5] was 19900 M⁻¹ s⁻¹. The Kd [6] was 3550 nM, the koff [6] was 0.00213 s⁻¹ and the kon [6] was 600 M⁻¹ s⁻¹. It also gave a Kd [7] of 233 nM, a koff [7] of 0.000325 s⁻¹ and a kon [7] of 1400 M⁻¹ s⁻¹.

B11: 0371-N3_T65S (antibody, V domains shown)
VH: B1 VH with T59S, M106R
VL: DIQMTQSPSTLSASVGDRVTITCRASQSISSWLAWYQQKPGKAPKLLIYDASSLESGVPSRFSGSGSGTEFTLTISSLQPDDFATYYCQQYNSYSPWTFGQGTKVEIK
notes: source: Expi293F, transfected
In the case of B11, the Kd [6] is reported as 108 nM, the koff [6] is reported as 0.00113 s⁻¹ and the kon [6] is reported as 10400 M⁻¹ s⁻¹. The Kd [7] was 592 nM, the koff [7] was 0.000157 s⁻¹ and the kon [7] was 265 M⁻¹ s⁻¹.

B12: 0380-YN3_T65G (antibody, V domains shown)
VH: B1 VH with T59G, M106Y
VL: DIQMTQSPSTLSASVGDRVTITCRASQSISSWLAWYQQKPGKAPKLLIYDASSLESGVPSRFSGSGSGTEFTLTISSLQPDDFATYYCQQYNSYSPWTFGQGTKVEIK
notes: source: Expi293F, transfected
Binder B12 has a Kd [6] of 4980 nM, a koff [6] of 0.00218 s⁻¹ and a kon [6] of 438 M⁻¹ s⁻¹. The Kd [7] was 77.3 nM, the koff [7] was 0.000311 s⁻¹ and the kon [7] was 4020 M⁻¹ s⁻¹.

B13: 0378-YN3_T65E (antibody, V domains shown)
VH: B1 VH with T59E, M106Y
VL: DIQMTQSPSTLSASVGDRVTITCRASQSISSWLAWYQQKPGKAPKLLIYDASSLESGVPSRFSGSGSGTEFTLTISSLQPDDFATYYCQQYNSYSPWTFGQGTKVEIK
notes: source: Expi293F, transfected
Work on B13 yielded a Kd [6] of 1740 nM, a koff [6] of 0.000439 s⁻¹ and a kon [6] of 253 M⁻¹ s⁻¹. For the same binder, the Kd [7] was 0.186 nM, the koff [7] was 0.000168 s⁻¹ and the kon [7] was 906000 M⁻¹ s⁻¹.

B14: N3-1_V (antibody, V domains shown)
VH: B1 VH with M106V
VL: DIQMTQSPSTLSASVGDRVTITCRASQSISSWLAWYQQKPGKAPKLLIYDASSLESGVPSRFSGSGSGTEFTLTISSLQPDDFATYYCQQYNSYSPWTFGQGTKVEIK
notes: IgG1
With B14 the Kd [1] was 1340 nM, the koff [1] was 0.00726 s⁻¹ and the kon [1] was 5410 M⁻¹ s⁻¹. The Kd [2] was 3.78 nM, the koff [2] was 0.00023 s⁻¹ and the kon [2] was 60900 M⁻¹ s⁻¹. It also gave a Kd [3] of 1470 nM, a koff [3] of 0.0163 s⁻¹ and a kon [3] of 11100 M⁻¹ s⁻¹. It also gave a Kd [4] of 421 nM, a koff [4] of 0.00542 s⁻¹ and a kon [4] of 12900 M⁻¹ s⁻¹. The Kd [5] was 704 nM, the koff [5] was 0.00681 s⁻¹ and the kon [5] was 9670 M⁻¹ s⁻¹.

B15: 0362-N3_T65H (antibody, V domains shown)
VH: B1 VH with T59H, M106R
VL: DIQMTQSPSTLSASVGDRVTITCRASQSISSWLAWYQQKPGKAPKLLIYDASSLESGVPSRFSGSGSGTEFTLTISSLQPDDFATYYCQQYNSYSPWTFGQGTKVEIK
notes: source: Expi293F, transfected
B15 gave a Kd [6] of 378 nM, a koff [6] of 0.00114 s⁻¹ and a kon [6] of 3020 M⁻¹ s⁻¹. The Kd [7] was 318 nM, the koff [7] was 0.00046 s⁻¹ and the kon [7] was 1450 M⁻¹ s⁻¹.

B16: 0352-MN3_T65S (antibody, V domains shown)
VH: B1 VH with T59S
VL: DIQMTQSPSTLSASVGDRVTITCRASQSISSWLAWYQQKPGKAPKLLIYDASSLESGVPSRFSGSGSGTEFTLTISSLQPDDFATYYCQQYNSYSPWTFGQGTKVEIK
notes: source: Expi293F, transfected
Binder B16 has a Kd [6] of 124 nM, a koff [6] of 0.0017 s⁻¹ and a kon [6] of 13700 M⁻¹ s⁻¹. It also gave a Kd [7] of 6.97 nM, a koff [7] of 0.0014 s⁻¹ and a kon [7] of 201000 M⁻¹ s⁻¹.

B17: N3-1_L (antibody, V domains shown)
VH: B1 VH with M106L
VL: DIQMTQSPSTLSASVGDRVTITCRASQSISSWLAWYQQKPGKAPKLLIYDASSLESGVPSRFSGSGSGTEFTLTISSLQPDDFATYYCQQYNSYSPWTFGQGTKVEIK
notes: IgG1
B17 gave a Kd [1] of 660 nM, a koff [1] of 0.00429 s⁻¹ and a kon [1] of 6490 M⁻¹ s⁻¹. For the same binder, the Kd [2] was 6 nM, the koff [2] was 0.00047 s⁻¹ and the kon [2] was 78300 M⁻¹ s⁻¹. It also gave a Kd [3] of 414 nM, a koff [3] of 0.00689 s⁻¹ and a kon [3] of 16600 M⁻¹ s⁻¹. It also gave a Kd [4] of 173 nM, a koff [4] of 0.00339 s⁻¹ and a kon [4] of 19500 M⁻¹ s⁻¹. It also gave a Kd [5] of 273 nM, a koff [5] of 0.00415 s⁻¹ and a kon [5] of 15200 M⁻¹ s⁻¹. The Kd [6] was 15200 nM, the koff [6] was 0.00357 s⁻¹ and the kon [6] was 234 M⁻¹ s⁻¹. The Kd [7] was 54.1 nM, the koff [7] was 0.00037 s⁻¹ and the kon [7] was 6840 M⁻¹ s⁻¹.

B18: N3-1_I (antibody, V domains shown)
VH: B1 VH with M106I
VL: not shown
notes: IgG1
In the case of B18, the Kd [1] is reported as 331 nM, the koff [1] is reported as 0.00193 s⁻¹ and the kon [1] is reported as 5820 M⁻¹ s⁻¹. The kon [2] was 76000 M⁻¹ s⁻¹, the Kd [3] was 145 nM and the koff [3] was 0.00168 s⁻¹. It also gave a kon [3] of 11600 M⁻¹ s⁻¹, a Kd [4] of 76.9 nM and a koff [4] of 0.00112 s⁻¹. For the same binder, the kon [4] was 14600 M⁻¹ s⁻¹, the Kd [5] was 121 nM and the koff [5] was 0.00146 s⁻¹. The kon [5] was 12100 M⁻¹ s⁻¹, the Kd [6] was 20.4 nM and the koff [6] was 0.00136 s⁻¹. The kon [6] was 66700 M⁻¹ s⁻¹, the Kd [7] was 1220 nM and the koff [7] was 0.000796 s⁻¹. It also gave a kon [7] of 651 M⁻¹ s⁻¹.

B19: 0344-MN3_T65I (antibody, V domains shown)
VH: B1 VH with T59I
VL: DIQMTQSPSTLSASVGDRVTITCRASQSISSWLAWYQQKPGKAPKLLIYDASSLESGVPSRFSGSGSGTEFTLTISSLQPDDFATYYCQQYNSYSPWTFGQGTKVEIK
notes: source: Expi293F, transfected
In the case of B19, the Kd [6] is reported as 151 nM, the koff [6] is reported as 0.0026 s⁻¹ and the kon [6] is reported as 17200 M⁻¹ s⁻¹. The Kd [7] was 1670 nM, the koff [7] was 0.0005 s⁻¹ and the kon [7] was 299 M⁻¹ s⁻¹.
